Source: patent publication US20250269048A1 (BIVICTRIX, published 2025)

Assays:
human CD7 on cells [1] = molecular target: T1, human CD7 on cells (human, UniProt P09564 26-240); experiment: FACS; reference 7-PP-1 WT (itself)
T1 construct: whole, on cells; Target of the FACS and cell capture values and of the kill assays on CD7 single positive cells; also called CD7+ cells; Jurkat (CD33-/CD7+)
T1 sequence (looked up): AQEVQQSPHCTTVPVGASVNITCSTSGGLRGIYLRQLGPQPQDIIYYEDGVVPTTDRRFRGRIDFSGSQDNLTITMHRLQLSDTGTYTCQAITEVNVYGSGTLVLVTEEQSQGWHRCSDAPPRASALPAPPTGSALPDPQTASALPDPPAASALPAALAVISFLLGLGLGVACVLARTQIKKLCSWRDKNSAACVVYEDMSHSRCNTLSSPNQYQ

human CD7 on cells [2] = molecular target: T1, human CD7 on cells; experiment: FACS; cells not named
human CD7 [3] = molecular target: T2, human CD7 (human, UniProt P09564 26-180, limits assumed); experiment: SPR
T2 construct: The construct is not described
T2 sequence (looked up): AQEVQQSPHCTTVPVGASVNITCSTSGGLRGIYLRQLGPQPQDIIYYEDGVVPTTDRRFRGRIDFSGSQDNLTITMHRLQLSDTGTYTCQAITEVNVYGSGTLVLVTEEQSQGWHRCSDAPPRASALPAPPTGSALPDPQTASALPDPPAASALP

human CD7 [4] = molecular target: T2, human CD7; experiment: SPR; reference 7-AA-WT

B1: CD7-PP-1-WT CD7 binding arm (Fab, V domains shown)
VH: QVQLQESGAELVKPGASVKLSCKASGYTFTSYWMHWVKQRPGQGLEWIGKINPSNGRTNYNEKFKSKATLTVDKSSSTAYMQLSSLTSEDSAVYYCARGGVYYDLYYYALDYWGQGTTVTVSS
VL: DIELTQSPATLSVTPGDSVSLSCRASQSISNNLHWYQQKSHESPRLLIKSASQSISGIPSRFSGSGSGTDFTLSINSVETEDFGMYFCQQSNSWPYTFGGGTKLEIKR
notes: also called PP WT
- FACS fold reduction compared to PP WT (human CD7 on cells [1]): 1 fold
- FACS binding (human CD7 on cells [2]): 0.53
- Kd (human CD7 [3]): 3.56 nM
- Fold Reduction in binding affinity compared to WT (Kd) (human CD7 [4]): 1.36 fold
